One molecule from US20220204577A1, “Synthetic Peptides With Affinity for the Interleukin-10 Receptor, Pharmaceutical Composition and Use Thereof as Immunomodulators for Treating Autoimmune, Inflammatory or Allergic Diseases” (Universidade Federal de Uberlândia, priority 2019, published 2022) can be followed below.

For the assay, the system named is mouse basophilic leukemia cells transfected with the human FcεRI IgE receptor (hRBL). In words: IgE-mediated release of β-hexosaminidase (basophil degranulation) in hRBL cells. It is filed as cell-based. To be noted: rIL10 treatment; versus cells treated with Bet v1 alone; serum from seven birch pollen-allergic donors. As for the experimental part: The effect of Pep 1 on IgE-mediated release was studied using mouse basophilic leukemia cells transfected with the human FcεRI IgE receptor (hRBL). The hRBL cells were sensitized with serum from seven patients allergic to birch pollen. The cells were stimulated with the antigen and its interaction with immobilized IgEs resulting in the release of β-hexosaminidase.
When cells were treated with a composition containing Pep 1 to 1 μM (FIG. 10A) or rIL10 (FIG. 10B), the amount of Bet v 1 required to induce the same amount of degranulation was higher than for cells treated with Bet v1 alone (P<0.05). Amount of rBet v 1 (ng/mL) required to induce half the release of β-hexosaminidase using serum from seven birch pollen-allergic donors after treatment with Pep 1 (A) (P<0.05) and rIL10 (B) * P<0.05.

B1: rIL10: recombinant IL-10, used as control (protein, UniProt P22301 19-178, looked up)
Interleukin-10: SPGQGTQSENSCTHFPGNLPNMLRDLRDAFSRVKTFFQMKDQLDNLLLKESLLEDFKGYLGCQALSEMIQFYLEEVMPQAENQDPDIKAHVNSLGENLKTLRLRLRRCHRFLPCENKSKAVEQVKNAFNKLQEKGIYKAMSEFDIFINYIEAYMTMKIRN
Take B1: the “amount of Bet v 1 required to induce the same amount of degranulation” value is “higher”.
